Series [1] has as its target T1, c-Ret on NB41A3-mRL3 cells (UniProt P35546 29-1115, limits assumed). The series can be described thus: cell-based or functional assay.
Series [2] deals with T1, c-Ret on NB41A3-mRL3 cells. The series can be described thus: cell-based or functional assay. The source holds these as a separate data set.
The target in series [3] is T2, c-Ret (Mus musculus, UniProt O35118+P35546).
T2 construct: NB41A3-mRL3 cells, an adherent murine neuroblastoma cell line which expresses Ret and GFRα3; endogenous in cells; host or cells: NB41A3-mRL3 (murine neuroblastoma)
As to the kind of experiment: Kinase Receptor Activation (KIRA) ELISA: neublastin dependent phosphorylation of c-Ret in NB41A3-mRL3 cells. Format: cell-based, murine. Particulars: for activity / potency in the KIRA ELISA (in words): compared with wild-type NBN113 / mature form; for KIRA: ~Max Efficacy vs WT: relative to wild-type, NB41A3-mRL3 cells. On the procedure: The potency of PEGylated mutated rat neublastin was measured using neublastin dependent activation/ phosphorylation of c-Ret as a reporter for neublastin activity in an ELISA that was specific for the presence of phosphorylated RET. NB41A3-mRL3 cells, an adherent murine neuroblastoma cell line which expresses Ret and GFRα3, were plated at 2 x 10^5 cells per well in 24-well plates in Dulbecco's modified eagle medium (DMEM), supplemented with 10 % fetal bovine serum, and cultured for 18 h at 37 °C and 5 % CO2.
The cells were washed with PBS, and treated with serial dilutions of neublastin in 0.25 mL of DMEM for 10 min at 37°C and 5 % CO2. Each sample was analyzed in duplicate. The cells were washed with 1 mL of PBS, and lysed for 1h at 4 °C with 0.30 mL of 10 mM Tris HC1, pH 8.0, 0.5 % Nonidet P40, 0.2 % sodium deoxycholate, 50 mM NaF, 0.1 mM Na3 VO4,1 mM phenylmethylsulfonyl fluoride with gently rocking the plates. The lysates were further agitated by repeated pipetting and 0.25 mL of sample was transferred to a 96-well ELISA plate that had been coated with 5 µg/mL of anti-Ret mAb (AA.GE7.3) in 50 mM carbonate buffer, pH 9.6 at 4°C for 18 h, and blocked at room temperature for one hour with block buffer (20 mM Tris HC1 pH 7.5, 150 mM NaCl, 0.1% Tween-20 (TBST) containing 1 % normal mouse serum and 3 % bovine serum albumin).
After a 2 h incubation at room temperature, the wells were washed 6-times with TBST. Phosphorylated Ret was detected by incubating the wells at room temperature for 2 h with 2 µg/mL of horseradish peroxidase (HRP)-conjugated anti-phosphotyrosine 4G10 antibody in block buffer, washing 6-times with TBST, and measuring HRP activity at 450 nm with a colorometric detection reagent. The absorbance values from wells treated with lysate or with lysis buffer were measured and the background corrected signal was plotted as a function of the concentration of neublastin present in the activation mixture.
Neublastin activity was determined by its ability to stimulate c-Ret phosphorylation in NB41A3-mRL3 cells using the KIRA ELISA described in Example 3. Phosphorylated Ret was detected by incubating (2 hours) the captured receptor with HRP-conjugated phosphotyrosine antibody (4G10; 0.2 µg per well). Following the incubation, the wells were washed six times with TBST, and the HRP activity detected at 450 nm with a colorimetric assay. The absorbance values from wells treated with lysate or with lysis buffer alone were measured, background corrected, and the data plotted as a function of the concentration of neublastin present in the activation mixture.
A general note: An ELISA detects its analyte on a solid surface through an enzyme-linked reagent.

Details of series [4]: species or system mice. Particulars: mouse, in vivo, sc. From the text: The pharmokinetic properties of various PEGylated and non-PEGylated mutated neublastin products in rat and mouse models were examined (see Table 8 for summary of results). The analysis of the PEGylated […] samples are complicated by the presence of adducts comprising 2, 3 and 4 PEGs per molecule, which each will display a different PK profile. In early PK studies, mice were used to facilitate screening through a variety of candidates and routes of administration. […] This difference in bioavailability was particularly pronounced following i.p. administration. Levels in mice reached 1600 ng/mL after 7 hr and remained at 400 ng/mL after 24 hr. In contrast, rat levels were constant at 100 ng/mL for 4-48 hr. Two surprising and unexpected results emerged from the PK studies summarized in Table 8: 1) PEGylation of the amino-terminal amino acids of non-glycosylated neublastin was not sufficient to increase serum exposure substantially, and 2) PEGylation of the amino-terminal amino acid(s) of neublastin together with modification (e.g. PEGylation or glycosylation) of amino acid 95 was sufficient to increase serum exposure substantially.

The mark [5] stands for this setting: estimated EC50, NB41A3-mRL3 cells.

The source of these data is EP2246362B1, “Polymer conjugates of mutated neublastin” (Biogen Idec MA Inc., priority 2003, dated 2004).

Like-named read-outs stand apart in the source and are kept apart here.

T1 sequence (P35546 29-1115 limits assumed): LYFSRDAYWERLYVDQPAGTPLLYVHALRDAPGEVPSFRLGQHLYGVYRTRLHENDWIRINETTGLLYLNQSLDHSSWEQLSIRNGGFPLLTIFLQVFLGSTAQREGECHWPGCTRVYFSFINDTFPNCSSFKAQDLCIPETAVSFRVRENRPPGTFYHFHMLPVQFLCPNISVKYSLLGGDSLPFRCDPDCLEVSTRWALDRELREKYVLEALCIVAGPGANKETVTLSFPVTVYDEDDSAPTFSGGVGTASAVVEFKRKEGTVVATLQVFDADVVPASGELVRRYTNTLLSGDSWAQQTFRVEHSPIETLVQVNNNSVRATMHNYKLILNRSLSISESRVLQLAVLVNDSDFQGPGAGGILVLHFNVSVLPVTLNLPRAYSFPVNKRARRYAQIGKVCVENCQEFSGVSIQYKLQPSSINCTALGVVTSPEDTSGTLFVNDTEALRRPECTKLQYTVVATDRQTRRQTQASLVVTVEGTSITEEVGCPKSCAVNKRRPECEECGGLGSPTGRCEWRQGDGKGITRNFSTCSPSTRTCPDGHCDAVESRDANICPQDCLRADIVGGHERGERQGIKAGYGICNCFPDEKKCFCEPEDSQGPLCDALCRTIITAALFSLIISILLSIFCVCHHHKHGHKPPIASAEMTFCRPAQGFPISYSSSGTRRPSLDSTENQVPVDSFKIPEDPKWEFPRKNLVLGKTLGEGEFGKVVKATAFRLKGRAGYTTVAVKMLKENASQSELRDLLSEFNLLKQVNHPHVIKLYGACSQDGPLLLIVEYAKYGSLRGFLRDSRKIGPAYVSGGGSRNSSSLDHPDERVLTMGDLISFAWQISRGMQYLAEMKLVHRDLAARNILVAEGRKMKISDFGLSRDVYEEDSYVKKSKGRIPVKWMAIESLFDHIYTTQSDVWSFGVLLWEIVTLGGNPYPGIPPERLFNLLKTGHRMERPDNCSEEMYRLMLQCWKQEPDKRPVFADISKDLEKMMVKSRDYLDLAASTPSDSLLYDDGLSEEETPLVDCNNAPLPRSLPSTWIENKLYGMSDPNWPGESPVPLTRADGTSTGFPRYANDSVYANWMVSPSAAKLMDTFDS
T2 sequence (P35546 29-1115): as the sequence (P35546 29-1115 limits assumed) above
T2 sequence (O35118 29-397): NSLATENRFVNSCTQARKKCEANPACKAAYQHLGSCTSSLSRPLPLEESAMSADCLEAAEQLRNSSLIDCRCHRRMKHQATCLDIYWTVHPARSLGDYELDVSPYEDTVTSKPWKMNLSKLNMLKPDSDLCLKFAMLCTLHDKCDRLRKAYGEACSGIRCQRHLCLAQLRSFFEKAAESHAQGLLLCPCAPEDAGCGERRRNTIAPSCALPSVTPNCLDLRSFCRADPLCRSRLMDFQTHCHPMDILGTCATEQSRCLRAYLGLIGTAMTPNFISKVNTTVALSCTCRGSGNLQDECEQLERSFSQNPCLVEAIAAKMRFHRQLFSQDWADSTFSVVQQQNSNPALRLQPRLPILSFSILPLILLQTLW

“BSA-conjugated neublastin (monosubstituted product) (from UniProt P02769 25-607)” had an IC50 in the KIRA ELISA in series [1] of 3000 to 6000 pM.
In series [1], “NBN104 (CHO) (from UniProt Q5T4W7 117-220) (ligand)” yielded a KIRA: ∼EC50 of 700 pM and a KIRA: ∼Max Efficacy vs WT of 90%.
For “2 X 20 kDa PEG-NBN104 (CHO) (from UniProt Q5T4W7 117-220) (ligand)”, in series [1], the KIRA: ∼EC50 was 1000 pM and the KIRA: ∼Max Efficacy vs WT was found to be 105%.
In the case of “1 X 20 kDa PEG-NBN104 (CHO) (from UniProt Q5T4W7 117-220) (ligand)”, in series [1], the KIRA: ∼EC50 was determined as 300 pM and the KIRA: ∼Max Efficacy vs WT was found to be 110%.

B1: 3 X 10 kDa PEG-WT/N95K-NBN106 (ligand)
chain 1: ARATDARGCRLRSQLVPVSALGLGHSSDELIRFRFCSGSCRRARSPHDLSLASLLGAGALRSPPGSRPISQPCCRPTRYEAVSFMDVNSTWRTVDHLSATACGCLG
chain 2: ARATDARGCRLRSQLVPVSALGLGHSSDELIRFRFCSGSCRRARSPHDLSLASLLGAGALRSPPGSRPISQPCCRPTRYEAVSFMDVKSTWRTVDHLSATACGCLG
modifications: 10 kDa PEG on the amino-terminal amino acid and on Lys95; 10 kDa PEG on the amino-terminal amino acid
In the case of B1, in series [2], the “KIRA: ∼EC50” value was roughly 700 pM and the “KIRA: ∼Max Efficacy vs WT” value was roughly 115%.

B2: 3 X 10 kDa PEG NBN106-N95K: homodimer of NBN106-N95K conjugated to three 10 kDa PEG moieties (conjugate)
chain: ARATDARGCRLRSQLVPVSALGLGHSSDELIRFRFCSGSCRRARSPHDLSLASLLGAGALRSPPGSRPISQPCCRPTRYEAVSFMDVKSTWRTVDHLSATACGCLG
B2: the “activity / potency in the KIRA ELISA (in words)” value in series [3] is listed as “fully active”. Moreover, in series [4], the “Exposure in Mice After s.c. Administration” value was “++”.

B3: 3 X 10 kDa PEG-WT/ N95K-NBN106: wild-type/N95K NBN106 heterodimer with three 10 kDa PEGs at amino acids 1,1,95 (conjugate)
chain 1: ARATDARGCRLRSQLVPVSALGLGHSSDELIRFRFCSGSCRRARSPHDLSLASLLGAGALRSPPGSRPISQPCCRPTRYEAVSFMDVNSTWRTVDHLSATACGCLG
chain 2: ARATDARGCRLRSQLVPVSALGLGHSSDELIRFRFCSGSCRRARSPHDLSLASLLGAGALRSPPGSRPISQPCCRPTRYEAVSFMDVKSTWRTVDHLSATACGCLG
As to B3, the “Exposure in Mice After s.c. Administration” value in series [4] is “++”.

B4: 4 X 10 kDa PEG NHN106-N95K: homodimer of NBN106-N95K conjugated to four 10 kDa PEG moieties (conjugate)
chain: ARATDARGCRLRSQLVPVSALGLGHSSDELIRFRFCSGSCRRARSPHDLSLASLLGAGALRSPPGSRPISQPCCRPTRYEAVSFMDVKSTWRTVDHLSATACGCLG
As for B4, in series [3], the “fold less potent than non-mutated (wild-type) NBN113 in activating Ret” value is “approximately 10 fold” and the “activity / potency in the KIRA ELISA (in words)” value is reported as “reduced potency”. The “Exposure in Mice After s.c. Administration” value in series [4] is “++”.

B5: 4 X 5 kDa PEG NBN106-N95K (ligand)
chain: ARATDARGCRLRSQLVPVSALGLGHSSDELIRFRFCSGSCRRARSPHDLSLASLLGAGALRSPPGSRPISQPCCRPTRYEAVSFMDVKSTWRTVDHLSATACGCLG
modifications: 5 kDa PEG on the amino-terminal amino acid and on Lys95 of each chain (PEGylated amino acids 1,1,95,95)
On to B5, for which, in series [2], the “KIRA: ∼EC50” value is roughly 1000 pM and the “KIRA: ∼Max Efficacy vs WT” value is roughly 80%.

B6: 2 X 20 kDa Branched PEG NBN106-N95K: NBN106-N95K dimer with two branched 20 kDa PEGs at amino acids 1,95 (conjugate)
chain: ARATDARGCRLRSQLVPVSALGLGHSSDELIRFRFCSGSCRRARSPHDLSLASLLGAGALRSPPGSRPISQPCCRPTRYEAVSFMDVKSTWRTVDHLSATACGCLG
On to B6, for which, in series [3] (setting [5]), the “KIRA: ~EC50” value is “inactive”. Moreover, the “KIRA: ~Max Efficacy vs WT” value in series [3] was “inactive”. In series [4], the “Exposure in Mice After s.c. Administration” value was “++”.

B7: 3 X 10 kDa PEG NBN106-N95K (ligand)
chain: ARATDARGCRLRSQLVPVSALGLGHSSDELIRFRFCSGSCRRARSPHDLSLASLLGAGALRSPPGSRPISQPCCRPTRYEAVSFMDVKSTWRTVDHLSATACGCLG
modifications: three 10 kDa PEG per dimer: on both amino-terminal amino acids and on one Lys95 (PEGylated amino acids 1,1,95)
On to B7, for which, in series [2], the “KIRA: ∼EC50” value was roughly 800 pM and the “KIRA: ∼Max Efficacy vs WT” value is roughly 100%.

B8: 1 X 20 kDa PEG-NBN104 (CHO): CHO derived NBN104 dimer glycosylated at 95,95 with one 20 kDa PEG at amino acid 1 (conjugate)
chain: AAGARGCRLRSQLVPVRALGLGHRSDELVRFRFCSGSCRRARSPHDLSLASLLGAGALRPPPGSRPVSQPCCRPTRYEAVSFMDVNSTWRTVDRLSATACGCLG
Broadly, the EC50 is the concentration giving half of the maximal effect. As to B8, the EC50 in series [3] (setting [5]) is 300 pM. In addition, in series [3], the “KIRA: ~Max Efficacy vs WT” value is 110%. In series [4], the “Exposure in Mice After s.c. Administration” value is reported as “++” and the “serum exposure after s.c. administration (in words)” value (“serum exposure” for short) is on record as “high serum exposure”.

B9: 2 X 20 kDa PEG-NBN104 (CHO): CHO derived NBN104 dimer glycosylated at 95,95 with two 20 kDa PEGs at amino acids 1,1 (conjugate)
chain: AAGARGCRLRSQLVPVRALGLGHRSDELVRFRFCSGSCRRARSPHDLSLASLLGAGALRPPPGSRPVSQPCCRPTRYEAVSFMDVNSTWRTVDRLSATACGCLG
B9: in series [3] (setting [5]), the EC50 was 1000 pM. In series [3], the “KIRA: ~Max Efficacy vs WT” value was determined as 105%. Moreover, in series [4], the “Exposure in Mice After s.c. Administration” value was “++” and the “serum exposure” value was “high serum exposure”.

B10: 2 X 10 kDa PEG-NBN (ligand)
chain: AGTRSSRARATDARGCRLRSQLVPVSALGLGHSSDELIRFRFCSGSCRRARSPHDLSLASLLGAGALRSPPGSRPISQPCCRPTRYEAVSFMDVNSTWRTVDHLSATACGCLG
modifications: 10 kDa PEG on amino acid 1 of each chain (PEGylated amino acids 1,1)
Take B10: in series [2], the “KIRA: ∼EC50” value was roughly 200 pM and the “KIRA: ∼Max Efficacy vs WT” value was roughly 72%.

B11: 1 X 20 kDa Branched PEG-NBN (ligand)
chain: AGTRSSRARATDARGCRLRSQLVPVSALGLGHSSDELIRFRFCSGSCRRARSPHDLSLASLLGAGALRSPPGSRPISQPCCRPTRYEAVSFMDVNSTWRTVDHLSATACGCLG
modifications: one 20 kDa branched PEG per dimer, on amino acid 1 of one chain (PEGylated amino acids: 1)
For the molecule B11, in series [2], the “KIRA: ∼EC50” value was roughly 200 pM and the “KIRA: ∼Max Efficacy vs WT” value is roughly 83%.

B12: 2 X 20 kDa PEG-NBN: E. coli derived NBN113 dimer with two 20 kDa PEGs at amino acids 1,1 (conjugate)
chain: AGTRSSRARATDARGCRLRSQLVPVSALGLGHSSDELIRFRFCSGSCRRARSPHDLSLASLLGAGALRSPPGSRPISQPCCRPTRYEAVSFMDVNSTWRTVDHLSATACGCLG
For B12, in series [4], the “Exposure in Mice After s.c. Administration” value is on record as “+” and the “serum exposure” value is “low-to-moderate serum exposure”.

B13: 2 X 20 kDa PEG-NBN (ligand)
chain: AGTRSSRARATDARGCRLRSQLVPVSALGLGHSSDELIRFRFCSGSCRRARSPHDLSLASLLGAGALRSPPGSRPISQPCCRPTRYEAVSFMDVNSTWRTVDHLSATACGCLG
modifications: 20 kDa PEG on amino acid 1 of each chain (cell printed '1,1 1')
For the molecule B13, in series [2], the “KIRA: ∼EC50” value was roughly 600 pM and the “KIRA: ∼Max Efficacy vs WT” value was roughly 80%.

B14: 2 X 5 kDa PEG-NBN (ligand)
chain: AGTRSSRARATDARGCRLRSQLVPVSALGLGHSSDELIRFRFCSGSCRRARSPHDLSLASLLGAGALRSPPGSRPISQPCCRPTRYEAVSFMDVNSTWRTVDHLSATACGCLG
modifications: 5 kDa PEG on amino acid 1 of each chain (PEGylated amino acids 1,1)
In the case of B14, in series [2], the “KIRA: ∼EC50” value is roughly 200 pM and the “KIRA: ∼Max Efficacy vs WT” value was roughly 105%.
